We go through one substance from paper PMC6929626, “PET/MRI enables simultaneous in vivo quantification of β-cell mass and function” (Theranostics, 2020).

The series has as its target T1, GLP-1R (Mus musculus, UniProt O35659).
T1 construct: high expression level of glucagon-like-peptide-1 receptor (GLP-1R) on the surface of β-cells enables their specific detection and quantification in the native pancreas; from tissue; host or cells: pancreas and insulinomas of living control and RIP1-Tag2 mice
T1 sequence (O35659 22-463): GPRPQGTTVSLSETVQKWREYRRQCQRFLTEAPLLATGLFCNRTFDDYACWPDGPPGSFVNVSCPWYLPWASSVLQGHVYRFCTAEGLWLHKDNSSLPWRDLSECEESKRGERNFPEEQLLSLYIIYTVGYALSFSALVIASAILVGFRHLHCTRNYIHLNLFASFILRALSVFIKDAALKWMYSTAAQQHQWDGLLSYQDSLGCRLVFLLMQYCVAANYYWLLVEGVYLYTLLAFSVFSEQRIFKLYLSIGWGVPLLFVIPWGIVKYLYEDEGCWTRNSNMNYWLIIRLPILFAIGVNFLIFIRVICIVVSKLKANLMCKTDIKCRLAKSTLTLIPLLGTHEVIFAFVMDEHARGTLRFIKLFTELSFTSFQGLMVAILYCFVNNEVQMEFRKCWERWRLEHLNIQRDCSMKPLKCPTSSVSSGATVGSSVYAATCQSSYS
Also noted: species or system mice. The settings on record: in vivo. Here is the method: In brief, mice were fasted for 4-6 hours and anesthetized with 1-2% isoflurane/O2 gas mixture (Vetland, Louisville, KY, USA) before the in vivo measurements. A tail vein catheter was initially placed for the co-injection of 50 µL of tracer solution (0.12 MBq/g bodyweight) and 50 µL of MnCl2:Bicine solution (75 µmol/kg body weight). The animals were placed in supine position on the bed in order to attenuate the motion artifacts rising from the respiratory movements. Thus, [^64Cu]Ex4 and MnCl2 solution were co-injected i.v. as a bolus a few seconds after the beginning of dynamic PET measurements. […] PET quantification was performed by 20-min static frames acquired simultaneously with 7T MRI scanner using a compatible PET-insert or consecutively using an Inveon-PET scanner (Inveon Dedicated PET, Siemens Healthineers, Knoxville, TN, USA). […] During the acquisition, we monitored the breathing with an MR-compatible breathing sensor. […]
The volume of interest (VOI) for the entire pancreas (Pancreas^Control; Pancreas^RIP1-Tag2) and the detected insulinomas (Insulinomas^RIP1-Tag2) were manually drawn in Inveon Research Workplace (Siemens Heathineers) after co-registration of the PET images. […] The co-registered VOIs were exported and analyzed in MATLAB (R2013b; The MathWorks, Natick, MA, USA) using an in-house script. […] For the quantification, we considered voxels with R1 values between 0.4 and 10 s^-1. […]

For the substance “[^64Cu]Cu-NODAGA-^40Lys-Exendin-4 [[^64Cu]Ex4]”, the “dynamic PET curve of pancreatic uptake” value is “stable pancreatic uptake after 20 min until 1 h”.
